{"source": "the DeepSol protein solubility set", "data": [{"experiment": "soluble on expression in E. coli; label from the status in PepcDB or PDB records", "values": [{"sequence": "MMKKMAIACALLSSVVASSVWADAASSLKSRLDKVSSFHATFTQKVTDGSGAAVQEGQGDLWVKRPNLFNWHMTQPDESILVSDGKTLWFYNPFVEQATATWLKDATGNTPFMLIARNQASDWQQYNIKQDGDNFVLTPKASNGNLKQFTINVGRDGTIHQFSAVEQDDQRSAYQLKSQQNGAVDPSKFTFTPPQGVTIDDQRK", "soluble on expression in E. coli": "not soluble"}, {"sequence": "MATLEITDIALVQPSHQPLSNDQTLSLSHLDNDNNLHVSFRYLRVYSSSSSTVAGESPSAVVSASLATALVHYYPLAGSLRRSASDNRFELLCSAGQSVPLVNATVNCTLESVGYLDGPDPGFVERLVPDPTREEGMVNPCILQVTMFQCGGWVLGASIHHAICDGLGASLFFNAMAELARGATKISIEPVWDRERLLGPREKPWVGAPVRDFLSLDKDFDPYGQAIGDVKRDCFFVTDDSLDQLKAQLLEKSGLNFTTFEALGAYIWRAKVRAAKTEEKENVKFVYSINIRRLMNPPLPKGYWGNGCVPMYAQIKAGELIEQPIWKTAELIKQSKSNTSDEYVRSFIDFQELHHKDGINAGTGVTGFTDWRYLGHSTIDFGWGGPVTVLPLSNKLLGSMEPCFFLPYSTDAAAGSKKDSGFKVLVNLRESAMPEFKEAMDKFHKGEFALS", "soluble on expression in E. coli": "soluble"}, {"sequence": "MVEIDPFEMAVKQLERAAQYMDISEEALEWLKKPMRIVEVSVPIEMDDGSVKVFTGFRVQHNWARGPTKGGIRWHPAETLSTVKALATWMTWKVAVVDLPYGGGKGGIIVNPKELSEREQERLARAYIRAVYDVIGPWTDIPAPDVYTNPKIMGWMMDEYETIMRRKGPAFGVITGKPLSIGGSLGRGTATAQGAIFTIREAAKALGIDLKGKKIAVQGYGNAGYYTAKLAKEQLGMTVVAVSDSRGGIYNPDGLDPDEVLKWKREHGSVKDFPGATNITNEELLELEVDVLAPAAIEEVITEKNADNIKAKIVAEVANGPVTPEADDILREKGILQIPDFLCNAGGVTVSYFEWVQNINGYYWTEEEVREKLDKKMTKAFWEVYNTHKDKNIHMRDAAYVVAVSRVYQAMKDRGWVKK", "soluble on expression in E. coli": "soluble"}, {"sequence": "MQRIPCVLMRGGTSKGPFFHAWDLPANVVERDELLINLMGSGHELEIDGIGGGSPQTSKVAIISPSLHADADVDYLFVQVMVAQRRVDTAPNCGNMLCAVGPFAIEQGLVKGQEGKTLVRIRNLNTGTFVNSLVETPGGIVRYEGRTAIDGVPGTAAPVHLTFLDAVGSKTGKLFPTGKAQDVIDGVPVTCIDMAMPMMVVEASQLGVSGSETPAQLDANSALLERLEALRLKAGKAMGLGDVSGMVIPKPVLVSKPRYDGTLQVRYFMPHNCHRALAITGAVGLATACVSPGTVIADLLGEGAQQLAQVRLEHPSGGIDVALTRSGAEGQTIQASVVRTARRLFSGFVYAPTFRRLAGLEHHHHHH", "soluble on expression in E. coli": "soluble"}, {"sequence": "MSYTHILVAVAVTPESHQLLAKAVSIARPVQAKVSLITLASDPELYNQFAAPMMEDLRAVMHEETENFLKMLGEKADYPIEQTFIASGELSQHILAVCRKHHVDLVICGNHNHSFFSRASCSAKSVVSASQVDVLLVPLAGD", "soluble on expression in E. coli": "not soluble"}, {"sequence": "AHHHHHHGSKKFPAYLASWEDIENWAKAGAWKVLESGWMPDVIVGLARGGWIAARLYCDYLGVKDLVSIKVEHWGVTATPDGRARLKYGAQYDFEGKKVLIVDDITDTGESMSLAYEYMKSRNPAEIRTATLLNIKGSKFVPDYYAKDIDWVWVVFPWNFVEDMINLTNNLFEEKDKLTTDEIISLFKELHGIEVPREKLEEALRMAEKRKIFKFENGFWTKV", "soluble on expression in E. coli": "soluble"}, {"sequence": "MGSDKIHHHHHHMSFRMIEPETIDDAAFVSSTVPETDAPVWDASTDYPFSDPDNPEEVIVEVGQHAIYRAVAPSGPSHGGAVDPATDTGNTKWVKIRSTNRWRVFDEYIGDPSVQANSAQWVITAPKVIDSVSLFGLYALSVTVLVRDSGGAEVYNQTYSLQDESGVVDLYTYLTSPIILSDRLVITDIPPYAGAKVTVTAEASGEDVEVGQIVIGRKEEIGVTIDEIPLSIQDFSRKERDPDFGRVSLLEKDFADEMPVAFVFPTSRASYLKSRLASRRAKLTVYSSDGPYKANEFSVYGFYQSFQVVPRIGSESEGILELESIT", "soluble on expression in E. coli": "not soluble"}, {"sequence": "MGSDKIHHHHHHAQPTDPSTTDSELTMLVGTYTSGNSKGIYTFRFNEETGESLPLSDAEVANPSYLIPSADGKFVYSVNEFSKDQAAVSAFAFDKEKGTLHLLNTQKTMGADPCYLTTNGKNIVTANYSGGSITVFPIGQDGALLPASDVIEFKGSGPDKERQTMPHLHCVRITPDGKYLLADDLGTDQIHKFNINPNANADNKEKFLTKGTPEAFKVAPGSGPRHLIFNSDGKFAYLINEIGGTVIAFRYADGMLDEIQTVAADTVNAQGSGDIHLSPDGKYLYASNRLKADGVAIFKVDETNGTLTKVGYQLTGIHPRNFIITPNGKYLLVACRDTNVIQIFERDQATGLLTDIKKDIKVDKPVCLKFVD", "soluble on expression in E. coli": "not soluble"}, {"sequence": "SNAMHNHNNRLVITPGEPAGVGPDLAITLAQQDWPVELVVCADPALLLARASQLNLPLQLREYQADQPAIAQQAGSLTILPVKTAVNVVPGKLDVGNSHYVVETLAKACDGAISGEFAALVTGPVQKSIINDAGIPFIGHTEFFADRSHCQRVVMMLATEELRVALATTHLPLLAVPGAITQASLHEVITILDNDLKTKFGITQPQIYVCGLNPHAGEGGHMGHEEIDTIIPALNTLRQQGINLIGPLPADTLFQPKYLQHADAVLAMYHDQGLPVLKYQGFGRAVNITLGLPFIRTSVDHGTALELAATGTADVGSFITALNLAIKMINNSNE", "soluble on expression in E. coli": "soluble"}, {"sequence": "MSLFIPKRVIFEKDSLDYEAAKNILNKFKDKKDVEIINITSNKLKQHIPGEDFYAQYREGKKTLVVGTKKSLKFQSCKPSAHYQLPLISGCMGQCEYCYLNTKLGDKPFVKVHVNIDEILSQAQKYIDERLPEITIFEGAATSDPIPVEPYTHSLEKAIVFFGKHENARFRFVTKYNDIDSLLDLEHNGHTEMRFSINTSSVINKYEHATASRDLRIEASIKAAKAGYPIGFLVAPVFIYPNWKEEYHDLLLSLSKNLPRDLKTPVTFEIISHRYTSTAKNIILQVFPESELPMSDEERKFKYGQFGYGKYVYPKENIDEMKQFFIKEIEDLFENKEIKYVIEGHHHHHH", "soluble on expression in E. coli": "soluble"}, {"sequence": "MGSDKIHHHHHHMAWTSAQGATAAMTVVDGVTGLPIAGATVVSAGAERVTANDGTFMMPMDGPDGGIAMTVRAPGYARLETVANGTTPRAIALAPLLAEEAARMGFDEVQFDYLRFPDAPGLRFSETNTSARRVAAITGFLSAARDRLRHYNIYLSADIFGYVCWNLDDTAIGQQLETLVVLSTTFHRCCIRPVSPSGWRRSGATSHPSRRGLP", "soluble on expression in E. coli": "not soluble"}, {"sequence": "MDPLLTLLYIRHTLTSPWSSSEERDTAKAAMMEEMEKHNMAPYIRLVCEALGVPLDESKLAEMDAINAKKVAAFDARLKDAVDNLGDTEVRDVLQAKCDHYARIGDLEMCMKTNEECAAKTLATGPKLDLYFQRIRLGIAFSDNDIAAKGITDAHRLMKDGDWERRNRLRVYEGIYHVFIRDFQRGSTLLLDSITTFAAGELLTFQDFVFITVVASLPVLSRPELRKRIVYSPEVNRTGVDDVRELVNSIYDCQYNKVFPNLEVVCQHLRKVVYLSPHVSYFFREMRVLIFTQFLDSYSSVTLESMGAAFGIPVPALDSMLCTLISNERIACKVDRVDGSVETYRGDTTNFDYHRIVKSGDLLLNRIQKLSRLVDM", "soluble on expression in E. coli": "not soluble"}, {"sequence": "MDNIVTQNIKFESEPNYYLRGYHLFDISPLNGLKCEITDEFETDKIHLKIKLDWDQQEIKKITGFIQLSYDGHQLKPIDSNFDKRGGICIMTVPKYINAYRWSFSFDLKLHRYPAKPPQISHDLNPQVRSYDTMFEPSRKHDAVLLIGEKKLHVNKAFLSYHSDYFCDLFAEKFDEKNGIPIENVTYENFGLLMSIIYPEAAFSNHQNAEVLLELGNRFKIPAVMRHVENQIIRDTKFPNERLIFLADKYELQKLLAMEIQKMESFDQAKKFKGSDDYSQLSDATKAKILDRLIELS", "soluble on expression in E. coli": "not soluble"}]}]}
